Measured values: paper PMC3161968

Biological target: recombinant flagellin type B of P. aeruginosa (P. aeruginosa) (UniProt P72151)
Chain of UniProt P72151 (P72151 whole entry): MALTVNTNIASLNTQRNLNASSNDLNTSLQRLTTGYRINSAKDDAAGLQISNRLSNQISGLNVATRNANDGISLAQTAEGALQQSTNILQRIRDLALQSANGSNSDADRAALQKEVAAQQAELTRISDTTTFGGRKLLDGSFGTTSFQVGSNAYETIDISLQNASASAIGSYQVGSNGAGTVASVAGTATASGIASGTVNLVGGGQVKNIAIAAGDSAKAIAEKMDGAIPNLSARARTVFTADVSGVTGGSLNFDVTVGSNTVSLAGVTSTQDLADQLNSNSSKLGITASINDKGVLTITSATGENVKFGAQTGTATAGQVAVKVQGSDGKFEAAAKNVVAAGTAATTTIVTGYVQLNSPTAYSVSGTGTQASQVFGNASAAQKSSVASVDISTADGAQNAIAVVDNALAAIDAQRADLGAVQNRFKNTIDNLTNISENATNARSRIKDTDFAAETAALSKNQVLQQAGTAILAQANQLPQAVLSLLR

recombinant His-AprA (alkaline protease of P. aeruginosa) (from UniProt Q03023 10-479) (enzyme)
inhibition of flagellin-induced IL-8 production by HEK/TLR5 cells (30 ng/ml P. aeruginosa flagellin; the pair whose signalling is blocked is m6 with m7); AprA acts by degrading flagellin: 30 ng/mL
